Experimental data published in patent publication US10562935B2, “Stapled peptides and uses thereof” (London Health Sciences Centre Research Inc., priority 2015, dated 2020).
Bridges are numbered along the chain shown (N, C = ends).

How the values were obtained:
[1] = Circular dichroism (CD) spectroscopy of linear and stapled peptides in water or 40% TFE/water (Example 3); format: physicochemical
Summary of the method: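 Spectra 180–260 nm at 20 °C, 0.5 mM N-acetylated, C-amidated peptides in 0.1M phosphate buffer (water) or 40% TFE/water, 1 mm path, five scans averaged, buffer baseline subtracted. Mean residue ellipticity reported at 222 and 208 nm with the 222/208 ratio as helicity index.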

NF-κB = assay: Inflammation assay: NF-κB inducible SEAP reporter in RAW-Blue macrophages stimulated with PAM3CSK4; format: cell-based, murine; conditions: % inhibition relative to positive control
Protocol: Compounds 132, 133, 135, 150, 152, 157-161, 265-269, 275, 277, and 278 were evaluated for their ability to inhibit inflammation. To determine the effect of the peptides on inflammation, commercially available murine RAW 264.7 macrophages carrying a secreted embryonic alkaline phosphatase (SEAP) reporter that is inducible by NF-κB (RAW-Blue; InvivoGen, San Diego, Calif., USA) were used. Cells were grown to 80% confluence in DMEM containing 4.5 g/L glucose, 10% heat-inactivated fetal bovine serum, 2 mM L-glutamine, 50 μg/mL penicillin/streptomycin, 100 μg/mL Normocin (InvivoGen) at 37° C. in 5% CO2. For peptide screening experiments, cells were scraped in growth medium, counted, and plated to flat-bottom 96-well plates at a density of 5×10^4 cells/well either in the presence or absence (control) of 200 ng/mL TLR1/TLR2 agonist PAM3CSK4 (InvivoGen). Peptides were added in 6 replicate wells at a dose of 10 ng/mL in the presence of PAM3CSK4. After 18 hours of stimulation, SEAP concentrations (indicating NF-κB activity) were measured in the supernatants collected from the RAW-Blue cells using QUANTI-BLUE reagent (InvivoGen). After 20 minutes of incubation at 37° C., SEAP levels were determined using spectrophotometry at a wavelength of 630 nm.
Values are the mean and SDM of n=3 replicates. *p<0.05 and ***p<0.001 compared to +PAM3. In FIGS. 44 and 45, where bars are labeled with two compound numbers (“133/150” and “135/152”) this means that the data were pooled for the indicated compounds, i.e., for the non-acetylated and acetylated versions of the indicated peptides.

[2] = [θ]222/[θ]208 ratio in water, summary tables 15, 17, 19
[3] = as repeated in tables 16, 18, 20

Row | Substance | [0]208 mean residue ellipticity at λ=208 nm ([1]; 40% TFE/water) [deg cm^2 dmol^−1] | [0]222/[0]208 ratio of ellipticities ([1]; 40% TFE/water) | [0]222 mean residue ellipticity at λ=222 nm ([1]; 40% TFE/water) [deg cm^2 dmol^−1] | [θ]222/[θ]208 ratio of ellipticities [1, 2] | [θ]222/[θ]208 ratio of ellipticities [1, 3] | [0]222/[0]208 ratio of ellipticities ([1]; in water) | alpha-helical character by CD (in words) ([1]; in water) | [0]208 mean residue ellipticity at λ=208 nm ([1]; water) [deg cm^2 dmol^−1] | [0]222/[0]208 ratio of ellipticities ([1]; water) | [0]222 mean residue ellipticity at λ=222 nm ([1]; water) [deg cm^2 dmol^−1] | Inflammation (% Inhib.) (NF-κB)
1 | Ac-(cyclo-7-11, cyclo-28-32)-NLKQKI[EHVVK]LKDENSQLKSEVSKLR[EQLVK]RKQN-NH2 (Ac-NLKQKIEHVVKLKDENSQLKSEVSKLREQLVKRKQN-NH2; lactam 7-11, 28-32; SMILES CC[C@H](C)[C@H](NC(=O)[C@H](CCCCN)NC(=O)[C@H](CCC(N)=O)NC(=O)[C@H](CCCCN)NC(=O)[C@H](CC(C)C)NC(=O)[C@H](CC(N)=O)NC(C)=O)C(=O)N[C@H]1CCC(=O)NCCCC[C@@H](C(=O)N[C@@H](CC(C)C)C(=O)N[C@@H](CCCCN)C(=O)N[C@@H](CC(=O)O)C(=O)N[C@@H](CCC(=O)O)C(=O)N[C@@H](CC(N)=O)C(=O)N[C@@H](CO)C(=O)N[C@@H](CCC(N)=O)C(=O)N[C@@H](CC(C)C)C(=O)N[C@@H](CCCCN)C(=O)N[C@@H](CO)C(=O)N[C@@H](CCC(=O)O)C(=O)N[C@H](C(=O)N[C@@H](CO)C(=O)N[C@@H](CCCCN)C(=O)N[C@@H](CC(C)C)C(=O)N[C@@H](CCCNC(=N)N)C(=O)N[C@H]2CCC(=O)NCCCC[C@@H](C(=O)N[C@@H](CCCNC(=N)N)C(=O)N[C@@H](CCCCN)C(=O)N[C@@H](CCC(N)=O)C(=O)N[C@@H](CC(N)=O)C(N)=O)NC(=O)[C@H](C(C)C)NC(=O)[C@H](CC(C)C)NC(=O)[C@H](CCC(N)=O)NC2=O)C(C)C)NC(=O)[C@H](C(C)C)NC(=O)[C@H](C(C)C)NC(=O)[C@H](Cc2c[nH]cn2)NC1=O) [Compound 278] | -2.44E04 | 0.86 | -2.12E04 | 0.74 | 0.74 | 0.74 | greatest alpha-helical character | -1.33E+04 | 0.74 | -9.95E+03 | 0
2 | Ac-(cyclo-10-14, cyclo-15-19)-KIKHVVKLK[KENSE][EKSEK]SKLRSQLVKRK-NH2 [Compound 269] | -2.65E04 | 0.81 | -2.14E04 | 0.44 | 0.44 | – | – | -9.04E+03 | 0.44 | -3.99E+03 | 0
